This test addresses GST-NSP3 1–181 (SARS-CoV-2). The experiment in a line: ITC.

“His-FXR1 215–360 (from UniProt A0A0F7L1S3 215-360) (domain or fragment)” came in with an equilibrium dissociation constant (Kd) of 2300 to 2900 nM.

In general, Kd refers to the equilibrium constant for the complex coming apart.
